Source: patent US20220339099A1 (published 2022)

Target: T1, human IL-1 type 1 receptor (IL-1R1) (human, UniProt P14778 18-336, limits assumed)
T1 construct: SPR reagent; also called IL-1RI; interleukin-1 type I receptor
T1 sequence (looked up): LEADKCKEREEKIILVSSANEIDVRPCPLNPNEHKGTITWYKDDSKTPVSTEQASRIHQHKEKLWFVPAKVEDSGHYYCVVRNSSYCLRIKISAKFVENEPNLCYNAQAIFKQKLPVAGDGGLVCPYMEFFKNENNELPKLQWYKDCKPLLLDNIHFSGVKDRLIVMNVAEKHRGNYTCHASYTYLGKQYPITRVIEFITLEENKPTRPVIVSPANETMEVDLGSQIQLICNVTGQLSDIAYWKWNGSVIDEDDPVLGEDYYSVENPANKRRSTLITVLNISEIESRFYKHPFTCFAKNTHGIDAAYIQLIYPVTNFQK
Assay: surface plasmon resonance

Kd: 547 nM | koff: 0.00145 s⁻¹ | kon: 2650 M⁻¹ s⁻¹
B1: rhIL-1α (recombinant human interleukin-1 alpha) (ligand, UniProt P01583 113-271, looked up)
chain: SAPFSFLSNVKYNFMRIIKYEFILNDALNQSIIRANDQYLTAAALHNLDEAVKFDMGAYKSSKDDAKITVILRISKTQLYVTAQDEDQPVLLKEMPEIPKTITGSETNLLFFWETHGTKNYFTSVAHPNLFIATKQDYWVCLAGGPPSITDFQILENQA
notes: also called rhlL-1α
